This note sets out measurements from the RNAGym collection of RNA variant scans (doi:10.7554/elife.90254).

B1: LINE1-full (parent)
chain: UACGUAGGUGGUUUUCCCCUGAUAGUGCUAAGGGGGCCUGGAAGUUUGGACUGGGCAGAGCUCAACACAGCGUGGCAAAGUGGCUGUGGCUAGACUGCCUCUCUGGAUUCCUCGUCACUCAGCAGGGCAUCUCUGAGAGAAAUGCC

The variants in the data set derive from B1. The experiment in a line: self-cleavage, relative activity (ratio to wild type); higher = more cleavage; in vitro, sequencing; the parent is a self-cleaving ribozyme.
For the variant AACGUAGGUGGUUUUCCCCUGAUUGUGCUAAGGGGGCCUGGAAGUUUGGACUGGGCAGAGCUCAACACAGCGUGGCAAAGUGGCUGUGGCUAGACUGCCUCUCUGGAUUCCUCGUCACUCAGCAGGGCAUCUCUGAGAGAAAUGCC [U1A A24U], the self-cleavage worked out at 1.28.

On to AACGUAGGUGGUUUUCCCCUGAUAGUGCUAAGGGGGCCUGGAAGUUUGGACUGGGCAGAGCUCAACACAGCGUGGCAAAGUGGCUGUGGCUAGACUGCCUCUCUGGAUUCCUCGUCUCUCAGCAGGGCAUCUCUGAGAGAAAUGCC [U1A A117U], for which the self-cleavage is 1.48. With AACGUAGGUGAUUUUCCCCUGAUAGUGCUAAGGGGGCCUGGAAGUUUGGACUGGGCAGAGCUCAACACAGCGUGGCAAAGUGGCUGUGGCUAGACUGCCUCUCUGGAUUCCUCGUCACUCAGCAGGGCAUCUCUGAGAGAAAUGCC [U1A G11A], the self-cleavage amounted to 1.76. As for AACGUAGGUGGUUUUCCCCUGAUAGUGCUAAGGGGGCCUGGAAGUUUGGACUGGGCAGAGCUCAACACAGCGUGGCAAAGUGGUUGUGGCUAGACUGCCUCUCUGGAUUCCUCGUCACUCAGCAGGGCAUCUCUGAGAGAAAUGCC [U1A C84U], the self-cleavage worked out at 0.22. As to AACGUAGGUGGUUUUCCCCUGAUAGUGCUAAGGGGGCCUGGAAGUUUGGACUGGGCAGAGCUCAACACAGCGUGGCAAAGUGGCUGUGGCAAGACUGCCUCUCUGGAUUCCUCGUCACUCAGCAGGGCAUCUCUGAGAGAAAUGCC [U1A U91A], the self-cleavage amounted to 1.27.

For the variant AACGUAGGUGGUUUUCCCCUGAUAGUGCUAAGGGGGCCUGGAAGUUUGGACUGGGCAGAGCUCAACACAGCGUGGCAAAGUGGCUGUGGCCAGACUGCCUCUCUGGAUUCCUCGUCACUCAGCAGGGCAUCUCUGAGAGAAAUGCC [U1A U91C], the self-cleavage was 0.15. As for AACGUAGGUGGUUUUCCCCUGAUAGUGCUAAGGGGGCCUGGAAGUUUGGACUGGGCAGAGCUCAACACAGCGUGGCAAAGUGGCUGCGGCUAGACUGCCUCUCUGGAUUCCUCGUCACUCAGCAGGGCAUCUCUGAGAGAAAUGCC [U1A U87C], the self-cleavage was 0.5.

Take AACGUAGGUGGUUUUCCCCUGAUAGUGCUAAGGGGGCCUGGAAGUUUGGACUGGGCAGAGUUCAACACAGCGUGGCAAAGUGGCUGUGGCUAGACUGCCUCUCUGGAUUCCUCGUCACUCAGCAGGGCAUCUCUGAGAGAAAUGCC [U1A C61U]: the self-cleavage turned out to be 0.08. In the case of AACGUAGGUGGUUUUCCCCUGAUAGUGCUAAGGGGGCCUGGAAGUUGGGACUGGGCAGAGCUCAACACAGCGUGGCAAAGUGGCUGUGGCUAGACUGCCUCUCUGGAUUCCUCGUCACUCAGCAGGGCAUCUCUGAGAGAAAUGCC [U1A U47G], the self-cleavage came out at 1.53. The result for AACGUAGGUGGUUUUCCCCUGAUAGUGCUAAGGGGGCCUGGAAGUUCGGACUGGGCAGAGCUCAACACAGCGUGGCAAAGUGGCUGUGGCUAGACUGCCUCUCUGGAUUCCUCGUCACUCAGCAGGGCAUCUCUGAGAGAAAUGCC [U1A U47C] reads 1.02. The result for AACGUAGGUGGUUUUCCCCUGAUAGUGCUAAGGGGGCCUGGAAGUUUGGACUGGGCAGAGCUCGACACAGCGUGGCAAAGUGGCUGUGGCUAGACUGCCUCUCUGGAUUCCUCGUCACUCAGCAGGGCAUCUCUGAGAGAAAUGCC [U1A A64G] reads 0.64; that for AACGUAGGUGGUUUUCCCCUGAUAGUGCUAAGGGGGCCUGGAAGUUUGGACUGGGCAGAGCUCAACACAGCGUGGCAAAGUGGCUGUGGCUAGACUGCCUCUCUGGAUUCCUCGUCACUCAGCAGGGCAUCUCUGAGGGAAAUGCC [U1A A138G], 1.05; that for AACGUAGGUGGUUUUCCCCUGAUAGCGCUAAGGGGGCCUGGAAGUUUGGACUGGGCAGAGCUCAACACAGCGUGGCAAAGUGGCUGUGGCUAGACUGCCUCUCUGGAUUCCUCGUCACUCAGCAGGGCAUCUCUGAGAGAAAUGCC [U1A U26C], 1.93. The same measure for AACGUAGGUGGUUUUCCCCUGAUAGUGCUAAGGGGGCCUGGAAGUUUGGACUGGGCAGAGCUCAACACAGCGUGGCAAAGUGGCUGUGGCUAGACUACCUCUCUGGAUUCCUCGUCACUCAGCAGGGCAUCUCUGAGAGAAAUGCC [U1A G97A]: 0.38.

With AACGUAGGUGGUUUUCCCCUGAUAGUGCUAAGGGGGCCUGGAAGUUUGGACUGGGCAGAGCUCAACACAGCGUGGCAAGGUGGCUGUGGCUAGACUGCCUCUCUGGAUUCCUCGUCACUCAGCAGGGCAUCUCUGAGAGAAAUGCC [U1A A79G], the self-cleavage was 1.31. The same measure for AACGUAGGUGGUUUUCCCCUGAUAGUGCUAAGGGGGCCUGGAAGUUUGGACUGGGCAGAGCUCAACACAGCGUGGCAAUGUGGCUGUGGCUAGACUGCCUCUCUGGAUUCCUCGUCACUCAGCAGGGCAUCUCUGAGAGAAAUGCC [U1A A79U]: 0.91; for AACGUAGGUGGUCUUCCCCUGAUAGUGCUAAGGGGGCCUGGAAGUUUGGACUGGGCAGAGCUCAACACAGCGUGGCAAAGUGGCUGUGGCUAGACUGCCUCUCUGGAUUCCUCGUCACUCAGCAGGGCAUCUCUGAGAGAAAUGCC [U1A U13C]: 0.91. The result for AACGUAGGUGGUUUUCCCCUGAUAGUGCUAAGGGGGCCUGGAAGUUUGGACUGGGCAGAGCUCAACACAGCGUGGCAAAGUGGCUGUGGCUAGACUGCCUCUCUGAAUUCCUCGUCACUCAGCAGGGCAUCUCUGAGAGAAAUGCC [U1A G106A] reads 1.44; that for AACGUAGGUGGUUUUCCCCUGAUAGUGCUAAGGGGGCCUGGAAGUUUGGACUGGGCAGAGCUCAACACAGCGUGGCAAAGUGGCUGUGGCUAGACUGCCUCUCUGGAUUCCUCGUCACUCAGCAGGGCAUCUCUGAGAGAAAUGCC [U1A], 1.17; that for AACGUAGGUGGUUUUCCCCUGAUAGUGCUAAGGGGGCCUAGAAGUUUGGACUGGGCAGAGCUCAACACAGCGUGGCAAAGUGGCUGUGGCUAGACUGCCUCUCUGGAUUCCUCGUCACUCAGCAGGGCAUCUCUGAGAGAAAUGCC [U1A G40A], 1.26. Regarding AACGUAGGUGGUUUUCCCCUGAUAGUGCUAAGGGGGCCUGGAAGUUUGGACUGGGCAGAGCUCAACCCAGCGUGGCAAAGUGGCUGUGGCUAGACUGCCUCUCUGGAUUCCUCGUCACUCAGCAGGGCAUCUCUGAGAGAAAUGCC [U1A A67C], the self-cleavage was found to be 0.3. With AACGUAGGUGGUUUUCCCCUGAUAGUGCUAAGGGGGCCUGGAAGUUUGGACUGGGCAGAGCUCAACACAGCGAGGCAAAGUGGCUGUGGCUAGACUGCCUCUCUGGAUUCCUCGUCACUCAGCAGGGCAUCUCUGAGAGAAAUGCC [U1A U73A], the self-cleavage was found to be 1.67. As for AACGUAGGUGGUUUUCCCCAGAUAGUGCUAAGGGGGCCUGGAAGUUUGGACUGGGCAGAGCUCAACACAGCGUGGCAAAGUGGCUGUGGCUAGACUGCCUCUCUGGAUUCCUCGUCACUCAGCAGGGCAUCUCUGAGAGAAAUGCC [U1A U20A], the self-cleavage was 0.81.

Turning to AACGUAGGUGGUUUUCCCCUGAUAGUGCUAAGGGGGCCUGGAUGUUUGGACUGGGCAGAGCUCAACACAGCGUGGCAAAGUGGCUGUGGCUAGACUGCCUCUCUGGAUUCCUCGUCACUCAGCAGGGCAUCUCUGAGAGAAAUGCC [U1A A43U], the self-cleavage is 0.68.

Turning to AACGUAGGUGGUUUUCCCCUGAUAGUGCUAAGGGGGCCUGGGAGUUUGGACUGGGCAGAGCUCAACACAGCGUGGCAAAGUGGCUGUGGCUAGACUGCCUCUCUGGAUUCCUCGUCACUCAGCAGGGCAUCUCUGAGAGAAAUGCC [U1A A42G], the self-cleavage was 1.35. In the case of AACGUAGGUGGUUUUCCCCUGAUAGUGCUAAGGGGGCCUGGAAGUUUGGACUGGGCAGAGCUCAACACAGCGUGGCAAAGUGGCUGUGGCUAGACUGCCUCUCUGGAUUCCUCGUCACUCAGCAGGCCAUCUCUGAGAGAAAUGCC [U1A G127C], the self-cleavage worked out at 1.51.

For the variant AACGUAGGUGGUUUUCCCCUGACAGUGCUAAGGGGGCCUGGAAGUUUGGACUGGGCAGAGCUCAACACAGCGUGGCAAAGUGGCUGUGGCUAGACUGCCUCUCUGGAUUCCUCGUCACUCAGCAGGGCAUCUCUGAGAGAAAUGCC [U1A U23C], the self-cleavage worked out at 2.04. As for AACGUAGGUGGUUUUCCCCUGAUAGUGCUAAGGGGGCCUGGAAGUUUGGGCUGGGCAGAGCUCAACACAGCGUGGCAAAGUGGCUGUGGCUAGACUGCCUCUCUGGAUUCCUCGUCACUCAGCAGGGCAUCUCUGAGAGAAAUGCC [U1A A50G], the self-cleavage was 0.75. Turning to AACGUAGGUGGUUUUCCCCUGAUAGUGCUAAGGGGGCCUGGAAGUUUGGACUGGGCAGAGCUCAACACAGCGUGGCAAAGUGGCUGUGGCUAGACUGCCUCUCUGGAUUCCUCGUCACUCAGCAGGGCCUCUCUGAGAGAAAUGCC [U1A A129C], the self-cleavage came to 2.51. For the variant AACGUAGGUGGUUUUCCCCUGAUAGUGCUAGGGGGGCCUGGAAGUUUGGACUGGGCAGAGCUCAACACAGCGUGGCAAAGUGGCUGUGGCUAGACUGCCUCUCUGGAUUCCUCGUCACUCAGCAGGGCAUCUCUGAGAGAAAUGCC [U1A A31G], the self-cleavage amounted to 1.26. The same measure for AACGUAGGUGGUUUUCCCCUGAUAGUGCUAAGGGGGCCUGGAAGUUUGGACUGGGCAGAGCUCAACACAGCGUGGCAAAGUGGCGGUGGCUAGACUGCCUCUCUGGAUUCCUCGUCACUCAGCAGGGCAUCUCUGAGAGAAAUGCC [U1A U85G]: 0.12. For AACGUAGGUGGUUUUCCCCUGAUAGUGCUAAGGGGGCCUGGAAGUUUGGACUGGGCAGAGCUCAACACAGCGUGGCAAAGUGGCUGUGGCUAGACUGCCUCUCUGGGUUCCUCGUCACUCAGCAGGGCAUCUCUGAGAGAAAUGCC [U1A A107G], the self-cleavage is 1.67. The result for AACGUAGGUGGUUUUCCCCUGAUAGUGCUAAGGGGGCCUGGAAGUUUGGACUGGGCAGAGCUCAACACAGCGUGGCAAAGUGGCUGUGGCUAGACUGCCUCUCUGGAUUCCUCGUCACUCAGCAGCGCAUCUCUGAGAGAAAUGCC [U1A G126C] reads 1.06; that for AACGUAGGUGGGUUUCCCCUGAUAGUGCUAAGGGGGCCUGGAAGUUUGGACUGGGCAGAGCUCAACACAGCGUGGCAAAGUGGCUGUGGCUAGACUGCCUCUCUGGAUUCCUCGUCACUCAGCAGGGCAUCUCUGAGAGAAAUGCC [U1A U12G], 0.97. In the case of AACGUAGGUGGUUUUCCCCUGAUAGUGCUAAGGGGGCCUGGAAGUUUGGACUGGGCAGAGCUCAACACAGCGUGGCAAAGUGGCUGUGGCUAGACUGCCUCUCUGGAUUCCUCGUCACUCAGCAGGGCAUCUCUGAGAGAUAUGCC [U1A A141U], the self-cleavage stood at 1.42. Regarding AACGUAGGUGGUUUUCCCCUGAUACUGCUAAGGGGGCCUGGAAGUUUGGACUGGGCAGAGCUCAACACAGCGUGGCAAAGUGGCUGUGGCUAGACUGCCUCUCUGGAUUCCUCGUCACUCAGCAGGGCAUCUCUGAGAGAAAUGCC [U1A G25C], the self-cleavage was 1.2. As to AACGUAGGUGGUUUUCCCCUGAUAGUGCUAAGGGGGCCUGGAAGUGUGGACUGGGCAGAGCUCAACACAGCGUGGCAAAGUGGCUGUGGCUAGACUGCCUCUCUGGAUUCCUCGUCACUCAGCAGGGCAUCUCUGAGAGAAAUGCC [U1A U46G], the self-cleavage was determined as 0.96. On to AACGUAGGUGGUUUUCCCCUGAUAGUGCUAAGGGGGCCUGGAAGUUUGGACCGGGCAGAGCUCAACACAGCGUGGCAAAGUGGCUGUGGCUAGACUGCCUCUCUGGAUUCCUCGUCACUCAGCAGGGCAUCUCUGAGAGAAAUGCC [U1A U52C], for which the self-cleavage came out at 1.64. For the variant AACGUAGGUGGUUUUCCCCUGAUAGUGCUAAGGGGGCCUGGAAGUUUGGACUGGGCAGAGCUCAACACACCGUGGCAAAGUGGCUGUGGCUAGACUGCCUCUCUGGAUUCCUCGUCACUCAGCAGGGCAUCUCUGAGAGAAAUGCC [U1A G70C], the self-cleavage was 0.43.
